Target: human SIRPα (human, UniProt P78324 31-373)
Assay: Biacore (SPR), format not stated

Chain of human SIRPα (P78324 31-504): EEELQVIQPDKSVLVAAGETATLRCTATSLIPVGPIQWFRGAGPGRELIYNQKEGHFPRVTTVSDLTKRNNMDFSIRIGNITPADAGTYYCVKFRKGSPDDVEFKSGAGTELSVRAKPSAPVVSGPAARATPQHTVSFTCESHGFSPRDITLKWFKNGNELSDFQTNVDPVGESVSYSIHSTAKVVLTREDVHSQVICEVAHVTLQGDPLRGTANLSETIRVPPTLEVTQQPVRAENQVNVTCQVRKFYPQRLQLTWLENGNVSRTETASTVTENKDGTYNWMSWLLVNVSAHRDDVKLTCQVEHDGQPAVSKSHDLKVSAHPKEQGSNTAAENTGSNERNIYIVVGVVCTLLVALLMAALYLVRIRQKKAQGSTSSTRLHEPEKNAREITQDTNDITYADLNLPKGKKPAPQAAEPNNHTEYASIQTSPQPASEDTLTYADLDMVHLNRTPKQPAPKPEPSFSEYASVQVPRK

Kd	Binder
1.18 nM	Mouse KWAR23 anti-SIRPα antibody (antibody, V domains shown, also called mouse antibody; mKWAR) VH: EVQLQQSGAELVKPGASVKLSCTASGFNIKDYYIHWVQQRTEQGLEWIGRIDPEDGETKYAPKFQDKATITADTSSNTAYLHLSSLTSEDTAVYYCARWGAYWGQGTLVTVSS VL: QIVLTQSPAIMSASPGEKVTLTCSASSSVSSSYLYWYQQKPGSSPKLWIYSTSNLASGVPARFSGSGSGTSYSLTISSMEAEDAASYFCHQWSSYPRTFGAGTKLELK
1.54 nM	Humanized KWAR23 anti-SIRPα antibody (antibody, V domains shown, The phagocytosis assays used HuKwar-G1, a human IgG1 with N297A; also called HuKwar-G1; HuKWar-G1) VH: EVQLVQSGAEVKKPGATVKISCKVSGFNIKDYYIHWVQQAPGKGLEWIGRIDPEDGETKYAPKFQDRATITADTSTDTAYMELSSLRSEDTAVYYCARWGAYWGQGTLVTVSS VL: QIVLTQSPPTLSLSPGERVTLTCSASSSVSSSYLYWYQQKPGQAPKLWIYSTSNLASGVPARFSGSGSGTSYTLTISSLQPEDFAVYFCHQWSSYPRTFGAGTKLEIK
